Tested on: MS2 coat protein
Assay: apparent KD of MS2 coat protein; designed switch direction (-1 OFF switch, 1 ON switch): -1; higher = weaker reporter binding
Procedure, shortened: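 Designed RNA switches with common flanks were made on Illumina chips by stalled E. coli RNA polymerase. Titration with SNAP-549-labelled MS2 coat protein doubled from 0.7 or 1.5 nM up to 3 µM. Apparent KD is each design's median over clusters after curve-fitting normalised fluorescence.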

[1] = input ligand: microRNA oligo, concentration not stated
[2] = Eterna round: R95, input ligand: FMN 200 uM
[3] = Eterna round: R95, input ligand: microRNA oligo, concentration not stated
[4] = Eterna round: R95, input ligand: none

| Sequence | apparent KD of MS2 coat protein (input ligand: FMN 200 uM) | apparent KD of MS2 coat protein [1] | apparent KD of MS2 coat protein (input ligand: none) | apparent KD of MS2 coat protein [2] | apparent KD of MS2 coat protein [3] | apparent KD of MS2 coat protein [4] |
| --- | --- | --- | --- | --- | --- | --- |
| CAUAGUUACUCAGGAUAUCUUACAUGAGGAUCACCCAUGUAAUAAAUGAGAAUUUCGAAUGUAUAAGAGAAGGGAGAAAUCUAC [Ostracism 58 - Jieux - Exclusion NG 2] (Eterna round: R96, puzzle: Exclusion NG 2) | 15.9 nM | 14 nM | 17.6 nM |  |  |  |
| CAUGAUCUUCGGAUCAUGUACAUGAGGAUCACCCAUGUGACGAGUUGAUCCUCAAACAAGCUUUUUGCUCGUCUUAU [Sensor v3 - Turn-off variant 1 - 18] (puzzle: Sensor v3, turn-off variant 1) |  |  |  | 17 nM | 10.6 nM | 17.5 nM |
| CAUGAUUGGCGAGGAUAUUGACCUAGUUGGCGACGAGAAGGCGCCUGUCACAUGAGGAUCACCCAUGUGAAUCUGGUGAAAGAG [Ex NG1 #90] (Eterna round: R96, puzzle: Exclusion NG 1) | 23.9 nM | 16.1 nM | 22.8 nM |  |  |  |
| CAUGAUUGGGAAGGAUAUUGACCUAGUUAGUGCCGAGAAGGUCCCUUUCACAUGAGGAUCACCCAUGUGAGACUGGUGUUCGAG [Ex NG1 #98] (Eterna round: R96, puzzle: Exclusion NG 1) |  | 19.6 nM |  |  |  |  |
| CAUGGAACGUAGGAUAUCUCGCAGCCCGGCCGCAGAGAAGGACGUACAUGAGGAUCACCCAUGUAUGAUCCAAA [Zareinon] (puzzle: Exclusion 6) |  |  |  | 32.2 nM | 19.8 nM | 26.2 nM |
| CAUGUGUAAGGAUAUGACAAUGGUAUCUUCGGAUACCAUUGUCAGAAGGUACAUGAGGAUCACCCAUGUAGAUC [Ex4-3: 16] (puzzle: Exclusion 4) |  |  |  |  | 48.6 nM |  |
| CAUUACUACAAGCUAAGGGACAUGAGGAUCACCCAUGUUCGUCUUAUUGAUCUAGGUACGCUGACGUACCUAGAUCU [JL-sv1-2.23 Brourd mod] (puzzle: Sensor v3, turn-off variant 1) |  |  |  | 15.8 nM | 20.1 nM | 14.6 nM |
| CAUUACUACAAGCUAUGGGACAUGAGGAUCACCCAUGUUCGUCUUAUUGAUCUAGGUACGCUGACGUACCUAGAUCU [JL-sv1-2.22 Brourd mod] (puzzle: Sensor v3, turn-off variant 1) |  |  |  | 16.6 nM | 21.6 nM | 15.7 nM |
| CAUUAGCGGGCAGGAUAUCCUAAUAAGCAGAAUGGAGAAGGGCCAAGGUCAACUUGAGGAUCACCCAAGUCAUAAAGUUGGCCC [Mutated MS2 EX1.29] (Eterna round: R96, puzzle: Exclusion NG 1) | 10.9 nM | 11.6 nM | 13.9 nM |  |  |  |
| CAUUAUGUUGAGGAUAUGCACCAGCUCACUGACGCAGAAGGCGACACAUGAGGAUCACCCAUGUCAGUUCGCGA [salish99_ex6_r004_428] (Eterna round: R97, puzzle: Exclusion 6) | 16.1 nM |  | 14.6 nM |  |  |  |
| CAUUAUGUUGAGGAUAUGCGCCGGAAAACUGACGCAGAAGGCGACACAUGAGGAUCACCCAUGUCAGUUUGCGA [salish99_ex6_r004_425] (Eterna round: R97, puzzle: Exclusion 6) | 70.1 nM |  | 28.3 nM |  |  |  |
| CAUUAUGUUGAGGAUAUGCGCCGGCAAACUGACGCAGAAGGCGACACAUGAGGAUCACCCAUGUCAGUUCGCGA [salish99_ex6_r004_423] (Eterna round: R97, puzzle: Exclusion 6) | 13.3 nM |  | 14.9 nM |  |  |  |
| CAUUAUUAUCGAGGAUAUCCUAUUGAAAUUCUGGGAGAAGGCGGACUCAACAUGAGGAUCACCCAUGUGGGACGGAUGCUAGGG [Ex NG1 #28] (Eterna round: R96, puzzle: Exclusion NG 1) |  | 17.5 nM |  |  |  |  |
| CAUUAUUAUCGAGGAUAUCCUAUUGAAAUUCUGGGAGAAGGCGGACUCAACAUGAGGAUCACCCAUGUGGGACGGAUGCUGGGA [salish99_exng1_r04_604] (Eterna round: R96, puzzle: Exclusion NG 1) | 18 nM | 20.9 nM | 21 nM |  |  |  |
| CAUUCAGAUGUCAGGAUAUCUGCGGGUAGGGCCGAAGAGAAGGGACAUGAGGAUCACCCAUGUACACUGCUAGA [BmEX4 B.28] (Eterna round: R97, puzzle: Brourd's mod of Exclusion 4) | 22.9 nM |  | 16 nM |  |  |  |
| CCAAACAGAGGAUAUGCGAAUAAAUAAAACUUUUUUUUUUAACAUGAGGAUCACCCAUGUAGAAGGCUGAAACC [Ex2 #41] (Eterna round: R97, puzzle: Exclusion 2) | 29.3 nM |  | 27.6 nM |  |  |  |
| CCAAAUCAUGUAGGAUAUGCGUGGCGAAGCUAUGCAGAAGGACAUGAGGAUCACCCAUGUGCUUCCGUCUGCGUACAGACGGUA [JL ENG1 1.15] (Eterna round: R96, puzzle: Exclusion NG 1) | 123 nM | 103 nM | 118 nM |  |  |  |

| Sequence | apparent KD of MS2 coat protein (input ligand: FMN 200 uM) | apparent KD of MS2 coat protein [1] | apparent KD of MS2 coat protein (input ligand: none) | apparent KD of MS2 coat protein [2] | apparent KD of MS2 coat protein [3] | apparent KD of MS2 coat protein [4] |
| --- | --- | --- | --- | --- | --- | --- |
| CCAAAUUCAGGAUAUACGAUGGUGAGUUCGUCCUCAAGGCCACAUGAGGAUCACCCAUGUAGAAGGGAGGUCGG [Eternabot (L1) Solution 77] (Eterna round: R97, puzzle: Exclusion 2) | 130 nM |  | 35.6 nM |  |  |  |
| CCAACCAGAGGAUAUGCGAAUAAAUAAAACUUUUUUUUUUAACAUGAGGAUCACCCAUGUAGAAGGCUGCAACC [Ex2 #39] (Eterna round: R97, puzzle: Exclusion 2) | 32 nM |  | 34.8 nM |  |  |  |
| CCAAGAUAAGGAUAUUGAAGGUUCGACAUGAGGAUCACCCAUGUUAUGUUGGAAAAGGGACAAGAAGGUAUGAAAA [salish99_ex5_r4_215] (Eterna round: R97, puzzle: Exclusion 5) | 27.6 nM |  | 34.3 nM |  |  |  |
| CCAAGCUAUUUCAUAACAAACAUGAGGAUCACCCAUGUGUAAGCAAUUAUGUUUGGGCUCUUUAGUGCUCGUCUUAU [JR_STOV1_Sub046] (Eterna round: R97, puzzle: Sensor, turn-off variant 1) | 19.2 nM |  | 19.2 nM |  |  |  |
| CCAAGCUGUGUGAGGAUAUGCUGGACCUUGGUUCAGCAGAAGGCACAUGAGGAUCACCCAUGUGAAAAGCUUGG [Mat - Exclusion 4 - JL Mod - D94] (puzzle: Brourd's mod of Exclusion 4) |  |  |  | 47.5 nM | 16.6 nM | 16.4 nM |
| CCAAGCUUAUUCAUUAACCACAUGAGGAUCACCCAUGUAUAGGCAAUUAUGACUGGCCCAUCUGGUGCUCGUCUUAU [Sensor-V1 #30] (Eterna round: R97, puzzle: Sensor, turn-off variant 1) | 17 nM |  | 15.9 nM |  |  |  |
| CCAAGCUUAUUCAUUAACCACAUGAGGAUCACCCAUGUCUUGGCAAUUAUGACUUGCCCGUCAGGUGCUCGUCUUAU [Sensor-V1 #34] (Eterna round: R97, puzzle: Sensor, turn-off variant 1) | 32.2 nM |  | 32.9 nM |  |  |  |
| CCAAGCUUUUUCAAUAACAACAUGAGGAUCACCCAUGUUUAAGCUAUUACUUUUGGGCUCUUUAGUGCUAGUCUUAU [JR_STOV1_Sub038] (Eterna round: R97, puzzle: Sensor, turn-off variant 1) | 18 nM |  | 18.2 nM |  |  |  |
| CCAAGGGAGGAGGAUAUACCCGCCAAUUGGCUUGUAGAAGGCCUCACAUGAGGAUCACCCAUGUGGGACAAAAC [Eternabot (Original) Solution 21] (Eterna round: R97, puzzle: Exclusion 6) | 22.8 nM |  | 18.4 nM |  |  |  |
| CCAAGUUCAUAGGAUAUCAGACGGAUAAAGGUAUGAGAAGGAUGAACAUGAGGAUCACCCAUGUGCACUCCCGA [EX6 B.19] (Eterna round: R97, puzzle: Exclusion 6) | 34.1 nM |  | 14.2 nM |  |  |  |
| CCAAUACAAGGAUAUGCGAUGCAUGUCAGGUUAGUAGACAGACAUGAGGAUCACCCAUGUAGAAGGUGUGUUGG [Eternabot (L2) Solution 55] (Eterna round: R97, puzzle: Exclusion 2) | 75.6 nM |  | 41.4 nM |  |  |  |
| CCACGACAUGAGGAUCACCCAUGUGAGGAUAUGGCCUGAAAAGCGUGAGCAGUUUUUAUCAGAAGGCGCGUGGG [salish99_ex1_r4_064_4A's4U's] (Eterna round: R97, puzzle: Exclusion 1) | 63.6 nM |  | 31.5 nM |  |  |  |
| CCACGACAUGAGGAUCACCCAUGUGAGGAUAUGGCCUGUAAAGCGUGAGCUGAAUCAAUCAGAAGGCGCGUGGG [salish99_ex1_r4_058] (Eterna round: R97, puzzle: Exclusion 1) | 119 nM |  | 46.1 nM |  |  |  |
| CCACGUCCGUACGUGUACUUGUCUCCUGAGAGCACGGGCACAUGAGGAUCACCCAUGUUUUUGCUCGUCUUAUGAGC [JR_Sensorv2_tov2_Sub716] (Eterna round: R96, puzzle: Sensor v2, turn-off variant 2) | 13.8 nM | 25.4 nM | 17.7 nM |  |  |  |
| CCAGCAAAUGUGAGGAUAUGCUGGUCCUUGGAUCAGCAGAAGGCACAUGAGGAUCACCCAUGUGGGAUAGCUGG [Eli bmx4 4.59] (Eterna round: R97, puzzle: Brourd's mod of Exclusion 4) | 412 nM |  | 194 nM |  |  |  |
| CCAGCAAUUGUCAGGAUAUGCUGGUCCUUGGAUCAGCAGAAGGGACAUGAGGAUCACCCAUGUGGAAAAGCUGG [Eli bmx4 4.64] (Eterna round: R97, puzzle: Brourd's mod of Exclusion 4) | 231 nM |  | 54.7 nM |  |  |  |
